Data as given in patent US20140044711A1.

Columns and labels:
[1] = biological target: Fc receptors on the surface of THP1 cells (Fc bearing human myeloid/monocytic cell line) (human); assay: cell-based or functional assay
[2] = biological target: Fc receptors on the surface of THP1 cells (Fc bearing human myeloid/monocytic cell line) (human); assay: FACS, mean fluorescence intensity of AF-647 labeled protein bound to THP1 cells

Row | fold reduction in Fc receptor binding relative to RSLV-124 [2] | Substance | cell death of THP1 cells by FACS, RNase Fc mutant compared to wild type [1] | fold decrease in cell death of THP1 cells (Annexin V binding and propidium iodide binding), RNase-Fc mutant compared to RNase-wild type Fc fusion protein [1]
1 | – | RNase-Fc fusion protein with a mutant Fc (P238S, P331S) (mtRNasemgIgG) | 3 to 5 fold | 3 fold
2 | > 4 fold | RSLV-132 (wthRNase-SCC-mthIgG1 P238S P331S) (Fc fusion) | – | –
